Assays:
[1] = target: human IgG3 antibody (IGHG3*01), half-molecule (heavy chain plus light chain) after reduction of the hinge disulfide bonds (human); test: FRET or BRET; real-time Fab arm (half-molecule) exchange of whole IgG; equimolar DyLight488- and DyLight594-labelled antibody, inter-heavy chain disulfide bonds fully reduced with DTT, 37 °C; first-order exponential fit; kobs taken as the CH3-CH3 dissociation rate (dimer to half-molecules)
[2] = target: human IgG1 antibody, half-molecule (heavy chain plus light chain) after reduction of the hinge disulfide bonds (human); test: as above
[3] = target: G3*01 Fc fragment (CH2CH3 of IgG3 allele IGHG3*01, G3m(b*), with an IgG4 hinge) (human); test: FRET or BRET; real-time half-molecule exchange of Fc fragments; 4 μg/ml Fc-488 and Fc-594 in PBS-P, each 1 h at 37 °C with 3 mM DTT, then mixed in equal volumes, 37 °C (IgG4-Fc-V397M/K392N at 10 μg/ml final); kobs taken as the CH3-CH3 dissociation rate (dimer to single chains)
[4] = target: human IgG4 antibody, half-molecule (heavy chain plus light chain) after reduction of the hinge disulfide bonds (human); test: FRET or BRET; real-time Fab arm (half-molecule) exchange of whole IgG; equimolar DyLight488- and DyLight594-labelled antibody, inter-heavy chain disulfide bonds fully reduced with DTT, 37 °C; first-order exponential fit; kobs taken as the CH3-CH3 dissociation rate (dimer to half-molecules)
[5] = target: human IgG2 antibody, half-molecule (heavy chain plus light chain) after reduction of the hinge disulfide bonds (human); test: as above
[6] = target: human IgG2 antibody, half-molecule (heavy chain plus light chain) after reduction of the hinge disulfide bonds (human); test: SEC; fluorescence-assisted HPLC; reduced (10 mM DTT) and alkylated (iodoacetamide) IgG, serial 4-fold dilutions 0.001-300 nM half-molecules with a small fixed dose of the DyLight-488 labelled equivalent, PBS with 0.1 mg/ml certolizumab pegol and 0.02% Tween 20, 37 °C up to 3 days; Superdex 200; dimer to half-molecules
[7] = target: the molecule itself; test: FRET or BRET; real-time half-molecule exchange of Fc fragments; 4 μg/ml Fc-488 and Fc-594 in PBS-P, each 1 h at 37 °C with 3 mM DTT, then mixed in equal volumes, 37 °C (IgG4-Fc-V397M/K392N at 10 μg/ml final); kobs taken as the CH3-CH3 dissociation rate (dimer to single chains)
[8] = target: the molecule itself; test: FRET or BRET; equilibrium; 2-fold dilutions of equimolar Fc-488 and Fc-594, 2 h at 37 °C with 3 mM DTT; F620/F588 against total half-molecules; homodimerization model; dimer to single chains

human IgG3 antibody (IGHG3*01), half-molecule (heavy chain plus light chain) after reduction of the hinge disulfide bonds
half-life of dissociation (t1/2) [1]: 0.467 h
koff [1]: 0.0004 s⁻¹

human IgG1 antibody, half-molecule (heavy chain plus light chain) after reduction of the hinge disulfide bonds
half-life of dissociation (t1/2) [2]: 384 h
koff [2]: 5e-07 s⁻¹

G3*01 Fc fragment (CH2CH3 of IgG3 allele IGHG3*01, G3m(b*), with an IgG4 hinge) (domain or fragment)
fold faster dissociation than G3*06 [3]: > 10 fold

human IgG4 antibody, half-molecule (heavy chain plus light chain) after reduction of the hinge disulfide bonds
half-life of dissociation (t1/2) [4]: 6 min
koff [4]: 0.0018 s⁻¹

human IgG2 antibody, half-molecule (heavy chain plus light chain) after reduction of the hinge disulfide bonds
half-life of dissociation (t1/2) [5]: 6.5 h
koff [5]: 3e-05 s⁻¹
Kd [6]: 0.023 nM

B1: G2-M397V Fc fragment (CH2CH3 of IgG2 with M397V, IgG4 hinge) (domain or fragment)
chain: ESKYGPPCPSCPAPPVAGPSVFLFPPKPKDTLMISRTPEVTCVVVDVSHEDPEVQFNWYVDGVEVHNAKTKPREEQFNSTFRVVSVLTVVHQDWLNGKEYKCKVSNKGLPAPIEKTISKTKGQPREPQVYTLPPSREEMTKNQVSLTCLVKGFYPSDISVEWESNGQPENNYKTTPPVLDSDGSFFLYSKLTVDKSRWQQGNVFSCSVMHEALHNHYTQKSLSLSPGK
modifications: DyLight 488 or DyLight 594 amine reactive dye (average degree of labeling ~2 for Fc fragments); hinge disulfide bonds reduced with DTT
koff [7]: < 1e-06 s⁻¹

B2: G3*03 Fc fragment (CH2CH3 of IgG3 allele IGHG3*03, G3m(c3c5*), with an IgG4 hinge) (domain or fragment)
chain: ESKYGPPCPSCPAPELLGGPSVFLFPPKPKDTLMISRTPEVTCVVVDVSHEDPEVQFKWYVDGVEVHNAKTKPREEQYNSTFRVVSVLTVLHQDWLNGKEYKCKVSNKALPAPIEKTISKTKGQPREPQVYTLPPSREEMTKNQVSLTCLVKGFYPSDIAVEWESSGQPENNYNTTPPVLDSDGSFFLYSRLTVDKSRWQEGNVFSCSVMHEALHNRFTQKSLSLSPGK
modifications: DyLight 488 or DyLight 594 amine reactive dye (average degree of labeling ~2 for Fc fragments); hinge disulfide bonds reduced with DTT
fold faster dissociation than IgG4 (m17) [7]: ~15 fold

B3: IgG4-V397M/K392N Fc fragment (domain or fragment)
chain: ESKYGPPCPSCPAPEFLGGPSVFLFPPKPKDTLMISRTPEVTCVVVDVSQEDPEVQFNWYVDGVEVHNAKTKPREEQFNSTYRVVSVLTVLHQDWLNGKEYKCKVSNKGLPSSIEKTISKAKGQPREPQVYTLPPSQEEMTKNQVSLTCLVKGFYPSDIAVEWESNGQPENNYNTTPPMLDSDGSFFLYSRLTVDKSRWQEGNVFSCSVMHEALHNHYTQKSLSLSLGK
modifications: DyLight 488 or DyLight 594 amine reactive dye (average degree of labeling ~2 for Fc fragments); hinge disulfide bonds reduced with DTT
Kd [8]: 2300 nM
koff [7]: 0.16 s⁻¹
